Measurements as given in patent US20240247069A1 (published 2024).

How the values were obtained:
Test in all cases: Biacore
Mouse FGFR3b = molecular target: T1, Mouse FGFR3b (UniProt Q61851 21-801)
T1 chain: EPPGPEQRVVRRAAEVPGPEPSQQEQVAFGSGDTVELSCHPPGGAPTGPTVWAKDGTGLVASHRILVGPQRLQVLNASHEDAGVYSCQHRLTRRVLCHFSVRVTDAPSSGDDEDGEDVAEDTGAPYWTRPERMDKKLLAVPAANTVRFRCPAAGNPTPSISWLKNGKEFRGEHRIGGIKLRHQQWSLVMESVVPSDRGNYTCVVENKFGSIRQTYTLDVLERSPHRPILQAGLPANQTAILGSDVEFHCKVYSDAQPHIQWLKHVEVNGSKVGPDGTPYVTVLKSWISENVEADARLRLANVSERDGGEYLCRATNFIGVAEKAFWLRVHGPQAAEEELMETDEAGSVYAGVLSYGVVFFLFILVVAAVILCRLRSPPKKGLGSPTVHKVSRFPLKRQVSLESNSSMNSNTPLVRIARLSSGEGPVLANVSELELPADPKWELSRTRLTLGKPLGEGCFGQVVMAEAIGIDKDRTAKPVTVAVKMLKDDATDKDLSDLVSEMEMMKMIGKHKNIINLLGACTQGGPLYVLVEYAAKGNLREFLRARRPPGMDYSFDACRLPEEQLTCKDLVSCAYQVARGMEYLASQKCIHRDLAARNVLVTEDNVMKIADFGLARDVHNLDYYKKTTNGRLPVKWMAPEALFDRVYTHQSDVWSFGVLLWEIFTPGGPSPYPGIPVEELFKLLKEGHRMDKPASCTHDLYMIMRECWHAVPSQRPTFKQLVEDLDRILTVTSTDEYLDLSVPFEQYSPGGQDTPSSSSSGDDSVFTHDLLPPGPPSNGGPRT

Human FGFR3b = molecular target: T2, Human FGFR3b (UniProt P22607 23-806)
T2 chain: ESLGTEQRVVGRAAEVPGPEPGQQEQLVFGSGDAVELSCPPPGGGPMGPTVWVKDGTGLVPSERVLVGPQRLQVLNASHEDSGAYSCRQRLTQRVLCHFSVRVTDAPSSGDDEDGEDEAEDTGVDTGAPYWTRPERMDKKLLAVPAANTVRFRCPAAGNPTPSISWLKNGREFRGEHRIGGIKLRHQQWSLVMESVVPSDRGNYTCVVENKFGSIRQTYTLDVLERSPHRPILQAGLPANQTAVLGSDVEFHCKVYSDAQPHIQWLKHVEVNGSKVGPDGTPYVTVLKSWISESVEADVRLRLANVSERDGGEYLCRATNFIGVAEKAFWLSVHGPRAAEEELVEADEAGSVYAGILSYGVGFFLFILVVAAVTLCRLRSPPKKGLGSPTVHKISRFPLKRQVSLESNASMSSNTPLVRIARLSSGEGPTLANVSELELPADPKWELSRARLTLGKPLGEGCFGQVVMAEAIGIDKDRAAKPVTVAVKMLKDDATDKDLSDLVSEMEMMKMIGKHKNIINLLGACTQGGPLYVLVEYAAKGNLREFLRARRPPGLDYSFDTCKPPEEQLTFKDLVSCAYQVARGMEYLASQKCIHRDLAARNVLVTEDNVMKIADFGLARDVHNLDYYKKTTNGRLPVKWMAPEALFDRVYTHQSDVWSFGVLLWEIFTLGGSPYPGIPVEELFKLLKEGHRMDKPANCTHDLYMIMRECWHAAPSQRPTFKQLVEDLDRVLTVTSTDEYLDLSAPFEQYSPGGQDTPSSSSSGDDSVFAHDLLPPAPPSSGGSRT

[1] = molecular target: T3, Human FGFR3b.mmh (REGN3152) (UniProt P22607 23-806)
T3 chain: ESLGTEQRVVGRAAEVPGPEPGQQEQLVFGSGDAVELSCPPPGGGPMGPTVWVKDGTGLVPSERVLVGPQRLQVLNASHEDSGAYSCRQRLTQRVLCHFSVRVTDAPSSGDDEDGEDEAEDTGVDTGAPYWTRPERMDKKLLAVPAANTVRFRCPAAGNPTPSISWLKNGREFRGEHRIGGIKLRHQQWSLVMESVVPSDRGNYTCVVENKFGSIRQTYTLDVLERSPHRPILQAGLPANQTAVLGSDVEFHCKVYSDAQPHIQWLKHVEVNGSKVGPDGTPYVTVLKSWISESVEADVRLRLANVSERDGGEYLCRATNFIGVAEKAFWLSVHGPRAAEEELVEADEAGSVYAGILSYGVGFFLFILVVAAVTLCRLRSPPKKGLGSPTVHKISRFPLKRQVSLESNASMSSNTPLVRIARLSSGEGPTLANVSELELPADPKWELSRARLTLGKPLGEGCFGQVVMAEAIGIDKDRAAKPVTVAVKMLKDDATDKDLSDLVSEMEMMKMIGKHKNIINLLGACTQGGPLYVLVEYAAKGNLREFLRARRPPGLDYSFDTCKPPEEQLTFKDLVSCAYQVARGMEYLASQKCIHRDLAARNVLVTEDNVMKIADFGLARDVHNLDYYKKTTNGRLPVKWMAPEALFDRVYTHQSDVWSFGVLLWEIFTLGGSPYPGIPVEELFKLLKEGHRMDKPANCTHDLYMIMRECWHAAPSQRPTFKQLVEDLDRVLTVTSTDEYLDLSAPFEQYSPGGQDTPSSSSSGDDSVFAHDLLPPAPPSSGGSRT

[2] = molecular target: T4, Mouse FGFR3b.mmh (REGN3215) (UniProt Q61851 21-801)
T4 chain: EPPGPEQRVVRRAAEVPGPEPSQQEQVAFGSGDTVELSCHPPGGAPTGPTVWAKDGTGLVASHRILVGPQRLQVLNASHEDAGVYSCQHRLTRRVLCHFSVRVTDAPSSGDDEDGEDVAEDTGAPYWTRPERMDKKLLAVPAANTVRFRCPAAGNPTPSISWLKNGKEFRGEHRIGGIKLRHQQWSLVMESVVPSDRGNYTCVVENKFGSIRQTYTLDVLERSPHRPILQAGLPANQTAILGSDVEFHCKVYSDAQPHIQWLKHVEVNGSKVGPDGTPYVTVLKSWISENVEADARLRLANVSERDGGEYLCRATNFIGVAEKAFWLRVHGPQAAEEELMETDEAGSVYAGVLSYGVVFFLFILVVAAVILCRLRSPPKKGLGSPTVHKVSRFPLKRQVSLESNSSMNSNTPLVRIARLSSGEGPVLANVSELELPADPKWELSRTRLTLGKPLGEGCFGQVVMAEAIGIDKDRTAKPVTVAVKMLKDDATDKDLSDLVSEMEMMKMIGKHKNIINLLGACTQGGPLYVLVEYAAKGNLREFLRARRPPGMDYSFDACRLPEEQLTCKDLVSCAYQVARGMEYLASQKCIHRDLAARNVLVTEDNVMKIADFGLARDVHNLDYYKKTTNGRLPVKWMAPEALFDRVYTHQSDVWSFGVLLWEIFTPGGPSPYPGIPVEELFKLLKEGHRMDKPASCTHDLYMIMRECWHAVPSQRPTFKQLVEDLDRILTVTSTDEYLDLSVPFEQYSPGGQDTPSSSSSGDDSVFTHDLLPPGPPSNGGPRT

Kd (Mouse FGFR3b): 1.4 nM | Kd (Human FGFR3b): 2.59 nM | Kd [1]: 2.59 nM | Kd [2]: 1.4 nM
B1: mAb063 (antibody, V domains shown)
VH: QVQLQESGPGLVKPSETLSLTCTVSGDSINSYFWSWIRQLPGKELEWIGHIYSSGSTRYNPSLQSRVTISIDTSKNQFSLKLSSVTAADTAVYYCARGASAVDYWGQGTLVTVSS
VL: EIVLTQSPGTLSLSPGERATLSCRTSQSISSGYLAWYQQKPGQAPRLLIYGASRRATGIPDRFSGSGSGTDFTLTISRLEPEDFVVYYCQQYGSSPYTFGQGTKLEIKR
